Experimental data: paper PMC7835374 (Nature Communications, 2021)

B1: 3I14 fragment antigen-binding region (Fab) (Fab, V domains shown)
VH: QVQLLESGGGVVQPGRSLRLSCAASGFTFSNYGMHWVRQAPGKGLEWVAIISFDGSKKYYANSVKGRSTISRDNSKNTLSLQMNSLGPEDTALYYCAKLPSPYYFDSRFVWVAASAFHFWGQGILVTVSS
VL: NFMLTQPPSASGTPGQRVTISCSGSSSNIGGNTVHWFQQLPGTAPKLLIYTNSLRPSGVPDRFSGSKSGTSASLAISGLQSEDEADYYCAAWDDSLNGQVFGGGTKLTVL
B2: 3I14^D93N Fab (Fab, V domains shown)
VH: B1 VH
VL: LTQPPSASGTPGQRVTISCSGSSSNIGGNTVHWFQQLPGTAPKLLIYTNSLRPSGVPDRFSGSKSGTSASLAISGLQSEDEADYYCAAWDNSLNGQVFGGGTKLTVL

Biological target: T1, hemagglutinin H3 (A/Victoria/361/2011), trypsin-cleaved HA1/HA2 trimer for crystallization (Influenza A virus A/Victoria/361/2011 …, UniProt A0A097PF39, strain, N-linked glycans (a group 2-specific sugar at position 38 of HA1))
T1 construct: copies: 3 + 3
Assay: crystal structure
Details: both partners purified

Binder	binding result
B1	binds
B2	binds
